# Source: the supplement of paper PMC9170038
# Tested on: MS2 coat protein
# Test: apparent KD of MS2 coat protein; designed switch direction (-1 OFF switch, 1 ON switch): -1; higher = weaker reporter binding
# How it was run: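 For each design, the apparent KD is the median over clusters of curves fitted to normalised cluster fluorescence. Clusters held RNA switches with common flanks, transcribed on Illumina chips by stalled E. coli RNA polymerase. These were titrated with SNAP-549-labelled MS2 coat protein, doubling from 0.7 or 1.5 nM to 3 µM, without input, with 200 uM small-molecule ligand, or with an oligonucleotide input.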
# [1] = input ligand: microRNA oligo, concentration not stated
# [2] = Eterna round: R95, input ligand: FMN 200 uM
# [3] = Eterna round: R95, input ligand: microRNA oligo, concentration not stated
# [4] = Eterna round: R95, input ligand: none
Sequence,apparent KD of MS2 coat protein [1] [nM],apparent KD of MS2 coat protein (input ligand: FMN 200 uM) [nM],apparent KD of MS2 coat protein (input ligand: none) [nM],apparent KD of MS2 coat protein [2] [nM],apparent KD of MS2 coat protein [3] [nM],apparent KD of MS2 coat protein [4] [nM]
"UUGUUAUGUGUAGGAUAUGCAUAUUAUUAUUAUGCAGAAGGACAUGAGGAUCACCCAUGUAUAUUAUUAUUAUAUAUUAUAUAU [Title] (Eterna round: R96, puzzle: Exclusion NG 1)",21.9,,,,,
"ACUGUAGAAGGAUAUGCUUCGACUCACAUGAGGAUCACCCAUGUCUUCGUGCAGUCGUCUGCAGAAGGUCUCCAGU [EX5 C.7] (Eterna round: R97, puzzle: Exclusion 5)",,1050,956,,,
"UUGUAGUGAGGAUAUAUAUAGAGGUUUUAUUAAUUUUUAAAACUUGAGGAUCACCCAAGUAGAAGGCGCAAAGU [JR_Ex2_Sub071] (Eterna round: R97, puzzle: Exclusion 2)",,41.5,39.9,,,
"CCCGUCGAUGUAGGAUAUGCCCGGGUCUCCCGGGCAGAAGGACAUGAGGAUCACCCAUGUUGAUGAGGAUCACCCAUCAAUGGG [Double but mutated MS2] (Eterna round: R96, puzzle: Exclusion NG 1)",15.8,16.9,20.7,,,
"GGGCGGCGGACCGUGGCUUUUUGCUCGUCUUGUGCUUCGACAUGAGGAUCACCCAUGUGGUGGUGGUCCGUUGUGGG [Grok-var2-14 mod JAL] (puzzle: Sensor v3, turn-off variant 2)",,,,18.2,12.6,14.7
"GGGCCCGGAGGAUAUACAAUCCCGGGCCGAAAGGUUUGGGUACAUGAGGAUCACCCAUGUAGAAGGCCGGGCCC [-40.9, -38.2 kcal A 24%, 5b bis,0] (Eterna round: R97, puzzle: Exclusion 2)",,29.1,17.9,,,
"AUAAUGUGAGGAUAUCAGUCGACUAGCGAUAGCUAGUCGACUGAGAAGGUACAUGAGGAUCACCCAUGUAGAUC [E4/20-A4] (Eterna round: R97, puzzle: Exclusion 4)",,70.6,31,,,
GCAUCCAAAGUGAGGAUAUACCUCUGGAUACAGAGGUAGAAGGCACAUGAGGAUCACCCAUGUUACUAGGAUGC [Fiskers BMX 4 - 35] (puzzle: Brourd's mod of Exclusion 4),,,,,13.2,
"AGGGCACGAGGAUAUGUGAAACUGGACUUGAGGAUCACCCAAGUCGUCUUCGUGUCCAAAGCAGAAGGCGUGGCCA [Zaesce] (Eterna round: R97, puzzle: Exclusion 5)",,13.8,10.4,,,
"UAUGAAGUAGGAUAUACAUGAGGAUCACCCAUGUCCUUACUGAGACCGGGCACGGCUCGUAGAAGGGCUUUCGA [Eternabot (L2) Solution 50] (Eterna round: R97, puzzle: Exclusion 3)",,36.7,40.7,,,
"UUGUUAUAUGUAGGAUAUGCGUAUUAUUAUUGGGCAGAAGGACAUGAGGAUCACCCAUGUAUGUUGUUGUUAUAUAUUAUAUAU [Title] (Eterna round: R96, puzzle: Exclusion NG 1)",34,47.2,44.4,,,
"ACAUGAGGAUCACCCAUGUCCGUCUGGUCUGUCUCGGCUGUCGAGGAUAUAGCUCGGUAUCCGCGCUAGAAGGCGGGAGUCGGC [Aenatbe mod 96] (Eterna round: R96, puzzle: Exclusion NG 3)",17.3,26.4,31.9,,,
UAACCUAUUGUCAGGAUAUCUACGUGGUAUCAUGAGGAGAAGGGACAUGAGGAUCACCCAUGUGGAAGGGAAAA [Beques] (puzzle: Brourd's mod of Exclusion 4),,,,60.2,31.1,48.3
"GAUUAUGCGAGCUUUAGGGACAUGAGGAUCACCCAUGUUCGUCUUAUUGGUCUGAGUGCACUAACAUACCUAAAUCU [JMF 31] (puzzle: Sensor v3, turn-off variant 1)",,,,23.1,37.3,22.8
